From FireProtDB (doi:10.1002/pro.5560070509)

B1: NADP-dependent isopropanol dehydrogenase, P25984 (parent)
chain: MKGFAMLGINKLGWIEKERPVAGSYDAIVRPLAVSPCTSDIHTVFEGALGDRKNMILGHEAVGEVVEVGSEVKDFKPGDRVIVPCTTPDWRSLEVQAGFQQHSNGMLAGWKFSNFKDGVFGEYFHVNDADMNLAILPKDMPLENAVMITDMMTTGFHGAELADIQMGSSVVVIGIGAVGLMGIAGAKLRGAGRIIGVGSRPICVEAAKFYGATDILNYKNGHIVDQVMKLTNGKGVDRVIMAGGGSETLSQAVSMVKPGGIISNINYHGSGDALLIPRVEWGCGMAHKTIKGGLCPGGRLRAEMLRDMVVYNRVDLSKLVTHVYHGFDHIEEALLLMKDKPKDLIKAVVIL

Variants of: B1
Settings: Clostridium beijerinckii; pH 8.25; Thermal; DSC; Sodium phosphate 25 mM; NaCl 1 M; reversible: yes; structure 1KEV; whole UniProt chain shown

| Variant | Tm | change of melting temperature, mutant - wild type (higher = more stable) |
| --- | --- | --- |
| MKGFAMLGINKLGWIEKERPVAGSYDAIVRPLAVSPCTSDIHTVFEGALGDRKNMILGHEAVGEVVEVGSEVKDFKPGDRVIVPCTTPDWRSLEVQAGFQQHSNGMLAGWKFSNFKDGVFGEYFHVNDADMNLAILPKDMPLENAVMITDMMTTGFHGAELADIQMGSSVVVIGIGAVGLMGIAGAKLRGAGRIIGVGSRPICVEAAKFYGATDILNYKNGHIVDQVMKLTNGKGVDRVIMAGGGSETLSQAVSMVKPGGIISNINYHGSGDALLIPRVEWGCGMAHKTIKGGLCPGGRLRAEMLRDMVVYNRVDLSKLVTHVYHGFDHIEEALLLMKDKPKDLIKPVVIL [A347P] | 68.6 °C | 2.6 °C |
| MKGFAMLGINKLGWIEKERPVAGSYDAIVRPLAVSPCTSDIHTVFEGALGDRKNMILGHEAVGEVVEVGSEVKDFKPGDRVIVPCTTPDWRSLEVQAGFQQHSNGMLAGWKFSNFKDGVFGEYFHVNDADMNLAILPKDMPLENAVMITDMMTTGFHGAELADIQMGSSVVVIGIGAVGLMGIAGAKLRGAGRIIGVGSRPICVEAAKFYGATDILNYKNGHIVDQVMKLTNGKGVDRVIMAGGGSETLSQAVSMVKPGGIISNINYHGSGDALPIPRVEWGCGMAHKTIKGGLCPGGRLRAEMLRDMVVYNRVDLSKLVTHVYHGFDHIEEALLLMKDKPKDLIKAVVIL [L275P] | 63.7 °C | -2.3 °C |
| MKGFAMLGINKLGWIEKERPVAGSYDAIVRPLAVSPCTSDIHTVFEGALGDRKNMILGHEAVGEVVEVGSEVKDFKPGDRVIVPCTTPDWRSLEVQAGFQQHSNGMLAGWKFSNFKDGVFGEYFHVNDADMNLAILPKDMPLENAVMIPDMMTTGFHGAELADIQMGSSVVVIGIGAVGLMGIAGAKLRGAGRIIGVGSRPICVEAAKFYGATDILNYKNGHIVDQVMKLTNGKGVDRVIMAGGGSETLSQAVSMVKPGGIISNINYHGSGDALLIPRVEWGCGMAHKTIKGGLCPGGRLRAEMLRDMVVYNRVDLSKLVTHVYHGFDHIEEALLLMKDKPKDLIKAVVIL [T149P] | 65 °C | -1 °C |
| MKGFAMLGINKLGWIEKERPVAGPYDAIVRPLAVSPCTSDIHTVFEGALGDRKNMILGHEAVGEVVEVGSEVKDFKPGDRVIVPCTTPDWRSLEVQAGFQQHSNGMLAGWKFSNFKDGVFGEYFHVNDADMNLAILPKDMPLENAVMITDMMTTGFHGAELADIQMGSSVVVIGIGAVGLMGIAGAKLRGAGRIIGVGSRPICVEAAKFYGATDILNYKNGHIVDQVMKLTNGKGVDRVIMAGGGSETLSQAVSMVKPGGIISNINYHGSGDALLIPRVEWGCGMAHKTIKGGLCPGGRLRAEMLRDMVVYNRVDPSKLVTHVYHGFDHIEEALLLMKDKPKDLIKAVVIL [S24P L316P] | 77.1 °C | 11.1 °C |
| MKGFAMLGINKLGWIEKERPVPGSYDAIVRPLAVSPCTSDIHTVFEGALGDRKNMILGHEAVGEVVEVGSEVKDFKPGDRVIVPCTTPDWRSLEVQAGFQQHSNGMLAGWKFSNFKDGVFGEYFHVNDADMNLAILPKDMPLENAVMITDMMTTGFHGAELADIQMGSSVVVIGIGAVGLMGIAGAKLRGAGRIIGVGSRPICVEAAKFYGATDILNYKNGHIVDQVMKLTNGKGVDRVIMAGGGSETLSQAVSMVKPGGIISNINYHGSGDALLIPRVEWGCGMAHKTIKGGLCPGGRLRAEMLRDMVVYNRVDLSKLVTHVYHGFDHIEEALLLMKDKPKDLIKAVVIL [A22P] | 66.7 °C | 0.7 °C |
| MKGFAMLGINKLGWIEKERPVAGSYDAIVRPLAVSPCTSDIHTVFEGALGDRKNMILGHEAVGEVVEVGSEVKDFKPGDRVIVPCTTPDWRSLEVQAGFQQHSNGMLAGWKFSNFKDGVFGEYFHVNDADMNLAILPKDMPLENAVMITDMMTTGFHGAELADIQMGSSVVVIGIGAVGLMGIAGAKLRGAGRIIGVGSRPICVEAAKFYGATDILNYKNGHIVDQVMKLTNGKGVDRVIMAGGGSETLSQAVSMVKPGGIISNINYHGSGDALLIPRVEWGCGMAHKTIKGGLCPGGRLRAEMLRDMVVYNRVDPSKLVTHVYHGFDHIEEALLLMKDKPKDLIKAVVIL [L316P] | 76.8 °C | 10.8 °C |
| MKGFAMLGINKLGWIEKERPVAGSYDAIVRPLAVSPCTSDIHTVFEGALGDRKNMILGHEAVGEVVEVGSEVKDFKPGDRVIVPCTTPDWRSLEVQAGFQQHSNGMLAGWKFSNFKDGVFGEYFHVNDADMNLAILPKDMPLENAVMITDMMTTGFHGAELADIQMGSSVVVIGIGPVGLMGIAGAKLRGAGRIIGVGSRPICVEAAKFYGATDILNYKNGHIVDQVMKLTNGKGVDRVIMAGGGSETLSQAVSMVKPGGIISNINYHGSGDALLIPRVEWGCGMAHKTIKGGLCPGGRLRAEMLRDMVVYNRVDLSKLVTHVYHGFDHIEEALLLMKDKPKDLIKAVVIL [A177P] | 66.5 °C | 0.5 °C |
| MKGFAMLGINKLGWIEKERPVAGPYDAIVRPLAVSPCTSDIHTVFEGALGDRKNMILGHEAVGEVVEVGSEVKDFKPGDRVIVPCTTPDWRSLEVQAGFQQHSNGMLAGWKFSNFKDGVFGEYFHVNDADMNLAILPKDMPLENAVMITDMMTTGFHGAELADIQMGSSVVVIGIGAVGLMGIAGAKLRGAGRIIGVGSRPICVEAAKFYGATDILNYKNGHIVDQVMKLTNGKGVDRVIMAGGGSETLSQAVSMVKPGGIISNINYHGSGDALLIPRVEWGCGMAHKTIKGGLCPGGRLRAEMLRDMVVYNRVDLSKLVTHVYHGFDHIEEALLLMKDKPKDLIKAVVIL [S24P] | 69.9 °C | 3.9 °C |
| MKGFAMLGINKLGWIEKERPVAGSYDAIVRPLAVSPCTSDIHTVFEGALGDRKNMILGHEAVGEVVEVGSEVKDFKPGDRVIVPCTTPDWRSLEVQAGFQQHSNGMLAGWKFSNFKDGVFGEYFHVNDADMNLAILPKDMPLENAVMITDMMTTGFHGAELADIQMGSSVVVIGIGAVGLMGIAGAKLRGAGRIIGVGSRPICVEAAKFYGATDILNYKNGPIVDQVMKLTNGKGVDRVIMAGGGSETLSQAVSMVKPGGIISNINYHGSGDALLIPRVEWGCGMAHKTIKGGLCPGGRLRAEMLRDMVVYNRVDLSKLVTHVYHGFDHIEEALLLMKDKPKDLIKAVVIL [H222P] | 59.5 °C | -6.5 °C |
